Experimental data published in article PMC4975667.

Target: Human full-length BAX (1–192) wild type, recombinant (human) (UniProt Q07812)

Kd: 32 µM
Substance: Human full-length BAX (1–192) wild type, recombinant (from UniProt Q07812 1-192) (natural protein)
